Where a SMILES comes first, the peptide text is derived from it. The star is where a group is joined. Cbz = O=C(OCc1ccccc1)*
T1: BBS10 (UniProt Q8TAM1 1-723, limits assumed)
T1 construct: Tested in the same co-IP series as the Myc- or HA-tagged BBS proteins
T1 sequence (looked up): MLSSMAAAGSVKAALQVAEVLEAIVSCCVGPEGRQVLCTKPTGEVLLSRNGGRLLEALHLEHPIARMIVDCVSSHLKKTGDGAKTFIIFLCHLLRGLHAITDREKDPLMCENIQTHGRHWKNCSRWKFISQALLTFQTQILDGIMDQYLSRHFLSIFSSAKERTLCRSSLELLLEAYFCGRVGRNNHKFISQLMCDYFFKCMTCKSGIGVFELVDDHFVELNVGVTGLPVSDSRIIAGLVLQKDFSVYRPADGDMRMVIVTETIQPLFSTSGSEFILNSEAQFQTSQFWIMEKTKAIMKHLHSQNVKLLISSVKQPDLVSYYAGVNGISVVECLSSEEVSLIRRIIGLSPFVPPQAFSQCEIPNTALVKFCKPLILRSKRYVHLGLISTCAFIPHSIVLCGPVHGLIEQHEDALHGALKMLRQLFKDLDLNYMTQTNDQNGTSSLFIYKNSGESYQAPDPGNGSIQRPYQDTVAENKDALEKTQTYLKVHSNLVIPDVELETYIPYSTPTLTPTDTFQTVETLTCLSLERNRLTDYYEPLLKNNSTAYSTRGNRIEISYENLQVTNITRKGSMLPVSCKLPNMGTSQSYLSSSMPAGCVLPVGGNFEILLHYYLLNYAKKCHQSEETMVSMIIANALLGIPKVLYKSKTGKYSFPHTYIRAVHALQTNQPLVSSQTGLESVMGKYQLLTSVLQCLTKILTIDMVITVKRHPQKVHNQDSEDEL

B1: GFP-tagged PSMB1 (proteasome subunit beta type 1, subunit in the 20S particle) (other, UniProt P20618 1-241, looked up)
chain: MLSSTAMYSAPGRDLGMEPHRAAGPLQLRFSPYVFNGGTILAIAGEDFAIVASDTRLSEGFSIHTRDSPKCYKLTDKTVIGCSGFHGDCLTLTKIIEARLKMYKHSNNKAMTTGAIAAMLSTILYSRRFFPYYVYNIIGGLDEEGKGAVYSFDPVGSYQRDSFKAGGSASAMLQPLLDNQVGFKNMQNVEHVPLSLDRAMRLVKDVFISAAERDVYTGDALRICIVTKEGIREETVSLRKD
notes: Transfected construct; not shown: GFP tag
B2: BBS5 (other, UniProt Q8N3I7 1-341, looked up)
chain: MSVLDALWEDRDVRFDLSAQQMKTRPGEVLIDCLDSIEDTKGNNGDRGRLLVTNLRILWHSLALSRVNVSVGYNCILNITTRTANSKLRGQTEALYILTKCNSTRFEFIFTNLVPGSPRLFTSVMAVHRAYETSKMYRDFKLRSALIQNKQLRLLPQEHVYDKINGVWNLSSDQGNLGTFFITNVRIVWHANMNDSFNVSIPYLQIRSIKIRDSKFGLALVIESSQQSGGYVLGFKIDPVEKLQESVKEINSLHKVYSASPIFGVDYEMEEKPQPLEALTVEQIQDDVEIDSDGHTDAFVAYFADGNKQQDREPVFSEELGLAIEKLKDGFTLQGLWEVMS
notes: Tested in the same co-IP series as the Myc- or HA-tagged BBS proteins
B3: GFP-tagged regulatory proteasome non-ATPase subunit 10 (RPN10) (other, UniProt P55036 1-377, looked up)
chain: MVLESTMVCVDNSEYMRNGDFLPTRLQAQQDAVNIVCHSKTRSNPENNVGLITLANDCEVLTTLTPDTGRILSKLHTVQPKGKITFCTGIRVAHLALKHRQGKNHKMRIIAFVGSPVEDNEKDLVKLAKRLKKEKVNVDIINFGEEEVNTEKLTAFVNTLNGKDGTGSHLVTVPPGPSLADALISSPILAGEGGAMLGLGASDFEFGVDPSADPELALALRVSMEEQRQRQEEEARRAAAASAAEAGIATTGTEDSDDALLKMTISQQEFGRTGLPDLSSMTEEEQIAYAMQMSLQGAEFGQAESADIDASSAMDTSEPAKEEDDYDVMQDPEFLQSVLENLPGVDPNNEAIRNAMGSLASQATKDGKKDKKEEDKK
notes: Transfected expression construct; also called GFP-tagged RPN10; not shown: GFP tag
B4: GFP-tagged regulatory proteasome non-ATPase subunit 13 (RPN13) (other, UniProt Q16186 1-407, looked up)
chain: MTTSGALFPSLVPGSRGASNKYLVEFRAGKMSLKGTTVTPDKRKGLVYIQQTDDSLIHFCWKDRTSGNVEDDLIIFPDDCEFKRVPQCPSGRVYVLKFKAGSKRLFFWMQEPKTDQDEEHCRKVNEYLNNPPMPGALGASGSSGHELSALGGEGGLQSLLGNMSHSQLMQLIGPAGLGGLGGLGALTGPGLASLLGSSGPPGSSSSSSSRSQSAAVTPSSTTSSTRATPAPSAPAAASATSPSPAPSSGNGASTAASPTQPIQLSDLQSILATMNVPAGPAGGQQVDLASVLTPEIMAPILANADVQERLLPYLPSGESLPQTADEIQNTLTSPQFQQALGMFSAALASGQLGPLMCQFGLPAEAVEAANKGDVEAFAKAMQNNAKPEQKEGDTKDKKDEEEDMSLD
notes: as for B1

Tests used:
NICD = assay: Immunoblot of NICD in BBS4-overexpressing cells treated with proteasome inhibitors; type: cell-based; conditions: MG132 30 μM 5 hours, lactacystin 20 μM 5 hours
Protocol: (§3) Transfected cells and mouse tissues were lysed in modified RIPA buffer [150 mM sodium chloride, 50 mM Tris-HCl, pH7.4, 1% nonidet P-40, 0.1% sodium deoxycholate, 1 mM EDTA] with 1× proteasome inhibitor (Roche) and centrifuged at 4° C. for 15 minutes. […] Total protein in each sample was separated by SDS-PAGE on 4% to 15% Mini-PROTEAN TGX Precast Gel (Bio-Rad) with a Spectra Multicolor Broad Range Protein Ladder (Fermentas) and transferred to an Immun-Blot PVDF Membrane (Bio-Rad). […] Densitometric analysis was performed with Image Lab (Bio-Rad), Quantity One (Bio-Rad), or ImageJ 1.44p (NIH) software.
(§4) Drug treatment was carried out at a final concentration of 10 μM SFN (Sigma-Aldrich) for 6 to 24 hours, 30 μm N-carbobenzoxyl- ? -leucinyl- ? -leucinyl- ? -norleucinal (MG132; Calbiochem) for 5 hours, 20 μM lactacystin (EMD Bioscience) for 5 hours, and 50 ng/ml TNF-α (Sigma-Aldrich) for 12 hours.

JAG1 = assay: Immunoblot of GFP-JAG1 in BBS4-overexpressing cells treated with proteasome inhibitor; type: cell-based; conditions: proteasome inhibitor 5 hours
Protocol: as §3, §4

[1] = test system: her4 expression (Notch target) in bbs4 morphant zebrafish embryos; assay: Whole-mount RNA in situ hybridization of her4 in morphant zebrafish; type: in vivo; conditions: bbs4 morphants, coinjection, 4.5 dpf
Protocol: (§1) Morpholinos against bbs1 ([NT] ID NO: 13), bbs4 ([NT] ID NO: 14), and ofd1 ([NT] ID NO: 15) were purchased from Gene Tools, LLC. Human RPN10, RPN13, and RPT6 mRNA were in vitro transcribed with a mMESSAGE mMACHINE SP6 Kit (Ambion). SFN was dissolved in DMSO (Sigma-Aldrich) at a stock concentration of 1 M and further diluted in water to 10 mM. The morpholino and mRNA or SFN were mixed, and a volume of 0.5 nl was microinjected. Zebrafish embryos were fixed overnight in 4% PFA at 4° C. Residual pigment was removed by bleaching with 3% H2O2/0.5% KOH.

[2] = test system: bbs4, bbs1 and ofd1 morphant zebrafish embryos; assay: Convergent extension (CE) and somite defects in morphant zebrafish embryos, coinjection; type: in vivo; conditions: coinjection with bbs4 morpholino
Protocol: as §1, with “microinjected.” for “microinjected. Zebrafish embryos were fixed overnight in 4% PFA at 4° C. Residual pigment was removed by bleaching with 3% H2O2/0.5% KOH.”

BBS10 = biological target: T1, BBS10; assay: co-immunoprecipitation, 1% Triton X-100
Protocol: (§2) First, an unbiased mass spectrometry screen was conducted to identify putative OFD1-interacting proteins. This experiment uncovered a spectrum of proteasomal subunits including regulatory proteasome ATPase subunit 6 (RPT6), a finding confirmed by semiendogenous coimmunoprecipitation (FIG. 4A). […] To test the physiological relevance of a BBS-proteasome interactome, it was determined that BBS1 and RPN10 interacted at endogenous levels in protein lysates isolated from C57BL/6 mouse testes (FIG. 4A). To probe the relevance of these interactions, the question was asked whether loss of OFD1 or BBS4 alters the composition of the proteasome with respect to its subunits. Using a stable cell line expressing tagged regulatory proteasome non-ATPase subunit 11 (RPN11) (37), OFD1 was suppressed, 26S proteasome complexes were purified, and a robust reduction was observed (60%±8%) of 26S-bound regulatory proteasome ATPase subunit 2 (RPT2) in OFD1-depleted cells in comparison with that in control, while total RPT2 protein abundance was not affected by OFD1 depletion (FIG. 4B).

BBS5 = biological target: B2; assay: co-immunoprecipitation, 1% Triton X-100
Protocol: as §2

[3] = biological target: B4; assay: co-immunoprecipitation, 1% Triton X-100
Protocol: as §2

[4] = biological target: B3; assay: co-immunoprecipitation, 1% Triton X-100
Protocol: as §2

[5] = biological target: T2, GFP-tagged regulatory proteasome ATPase subunit 6 (RPT6) (UniProt P62195 1-406); assay: co-immunoprecipitation, 1% Triton X-100
T2 construct: Transfected construct; not shown: GFP tag
Protocol: as §2

T2 sequence (P62195 whole entry): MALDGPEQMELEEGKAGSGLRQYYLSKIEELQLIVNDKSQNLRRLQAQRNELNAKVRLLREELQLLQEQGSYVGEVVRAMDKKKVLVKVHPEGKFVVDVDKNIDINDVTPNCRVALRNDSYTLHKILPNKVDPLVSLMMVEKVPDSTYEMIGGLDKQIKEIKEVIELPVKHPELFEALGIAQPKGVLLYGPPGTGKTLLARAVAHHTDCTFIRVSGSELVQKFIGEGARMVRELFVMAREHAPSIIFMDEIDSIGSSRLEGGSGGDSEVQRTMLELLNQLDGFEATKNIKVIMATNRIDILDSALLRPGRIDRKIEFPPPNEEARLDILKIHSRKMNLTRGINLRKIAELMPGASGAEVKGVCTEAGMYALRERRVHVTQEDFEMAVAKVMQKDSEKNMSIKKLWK

Molecule: CC(=O)N[C@@H](CSC(=O)[C@]1([C@@H](O)C(C)C)NC(=O)[C@H](C)[C@@H]1O)C(=O)O [lactacystin]
- NICD protein levels, of basal levels (NICD): 138%

Molecule: CC(C)C[C@@H](C=O)NC(=O)[C@H](CC(C)C)NC(=O)[C@H](CC(C)C)NC(=O)OCc1ccccc1 [MG132] (Cbz-Leu-Leu-Leu-aldehyde)
- JAG1 levels, of basal levels (JAG1): 99%±38%
- NICD protein levels, of basal levels (NICD): 93%

Molecule: CC1(O)CCOC(=O)C1 (racemic) [MVA, (±)-β-hydroxy-β-methyl-δ-valerolactone]
- ectopic expression of her4 in neural structures [1]: reduced
- bbs4 morphant zebrafish with CE defects ([2]; 9±1 ss, 47.8% without MVA): 11.4%
- bbs4 morphants with CE and somitic defects ([2]; blind scoring at 9±1 ss): rescues

Molecule: B1
- binding result (BBS10): no binding
- binding result (BBS5): no binding

Molecule: B2
- binding result [3]: no binding
- binding result [4]: no binding
- binding result [5]: no binding

Molecule: B3
- binding result (BBS10): no binding

Molecule: B4
- binding result (BBS10): no binding

— patent US20170016915A1, “SCREENING TARGETS AND COMPOSITIONS AND METHODS FOR TREATMENT OF CILIOPATHY DISORDERS” (Duke University, priority 2014, published 2017)
